Test results: patent publication US20160115202A1 (OHIO STATE INNOVATION FOUNDATION, published 2016)
Read-outs that look alike come from different tables or passages of the source. Blank lines part the entries; values can stand above or below the molecule they belong to. Bridges are numbered along the chain shown (N, C = ends). Primed or numbered codes have the meaning given here. Where no end group is shown, it is not given here. [ ]: non-standard residue; d: D form. The star is where a group is joined. trimesoyl = trimesic acid scaffold joined by three amide bonds (bicycle); trimesoyl″ = trimesic acid scaffold joined by three amide bonds; FITC = O=C1OC2(c3ccc(O)cc3Oc3cc(O)ccc32)c2ccc(NC(=S)*)cc21; Phg = N[C@H](C(=O)O)c1ccccc1; Nle = CCCC[C@H](N)C(=O)O; Pra = C#CC[C@H](N)C(=O)O; dNal = D-naphthylalanine; Dap = NC[C@H](N)C(=O)O

What was measured:
[1] = biological target: GST-tagged K-Ras G12V protein (Example 4) (UniProt P01116); experiment: FA, binding in solution
[2] = biological target: GST-tagged K-Ras G12V protein (Example 4) (UniProt P01116); experiment: FA, binding in solution; remark: listed apart in the source
[3] = biological target: T1, ybbR-tagged extracellular domain of human TNFα (aa 77-233) (human, UniProt P01375 77-233, biotin or Texas Red attached at the ybbR tag by Sfp where labeled TNFα was used); experiment: FA competition; competitor FITC-labeled Necrostatin C1 (100 nM), TNFα 1600 nM
T1 construct: range 77-233; Expressed in E. coli from pET-22b(+)-ybbR; also called TNF-alpha; tumor necrosis factor-alpha
T1 sequence (P01375 other isoform, or with tags, fused parts or gaps limits assumed): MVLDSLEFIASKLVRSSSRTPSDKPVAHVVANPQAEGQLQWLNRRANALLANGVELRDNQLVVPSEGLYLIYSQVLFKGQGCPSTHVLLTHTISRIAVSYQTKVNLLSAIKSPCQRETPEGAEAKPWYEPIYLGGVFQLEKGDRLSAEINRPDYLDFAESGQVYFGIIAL

[4] = biological target: T1, ybbR-tagged extracellular domain of …; experiment: FA competition; competitor FITC-labeled Necrostatin C2 (100 nM), TNFα 1600 nM
[5] = biological target: T1, ybbR-tagged extracellular domain of …; experiment: FA, resynthesized FITC-labeled peptide titrated with TNFα
[6] = biological target: T1, ybbR-tagged extracellular domain of …; experiment: competition ELISA: 0.5 nM HRP-TNFR1 on immobilized biotinylated TNFα
Experimental: A Nunc 96F Maxisorp plate was coated overnight with 100 μL of 5 mg/mL Neutravidin (in 50 mM Na₂CO₃, pH 9.0) at 4° C. The solution was removed and each well was washed with 100 μL of the blocking buffer containing 3% BSA. […] The wells were quickly washed twice with a washing buffer (0.01% Tween 20 in PBS buffer). […] After incubation at 4° C. for 1.5 h, the plate was washed twice with the washing buffer and incubated with 100 μL of 3,3′,5,5′-tetramethylbenzidine (Sigma) for 30 min. The reaction was quenched by the addition of 100 μL of 1 M phosphoric acid. The absorbance at 450 nm was measured and plotted against the peptide concentration and the IC₅₀ value was obtained by curve fitting.

- Kd [1]: 6 µM
Molecule: peptide 13, bicyclo(Ala-Orn-Phg-Arg-d-Asn-Pra-Ile-d-Phe-K-FNalR4-Dap)-K

- Kd [2]: 2 µM
B1: peptide 12, bicyclo(d-Ala-Gln-Phg-Arg-d-Asn-Pra-Ile-Asp-K-FNalR4-Dap)-K (peptide)
peptide: [dA]Q[Phg]R[dN][Pra]IDKF[dNal]RRRR[Dap]K
modifications: linker N-1-9-16 via trimesoyl″; not fully specified (residue 6); also: dye label on C-terminal Lys not given here

Further lines, the molecule ahead of its results:

B2: Necrostatin C2 (unlabeled) (peptide)
peptide: A[dF]W[dT]QK[Nle][dL]AH[Dap]
modifications: linker (positions not given here) via trimesic acid (trimesoyl); not fully specified (bridges)
notes: also called unlabeled Necrostatin C2
- IC50 [3]: ~4 µM
- IC50 [4]: ~2 µM

Molecule: [Phg]Y[dA]KY[dF]G[dK]H[Dap]K(FITC) (linker (positions not given here) via trimesoyl; not fully specified (bridges)) [FITC-labeled Necrostatin C1 (resynthesized)]
- Kd [5]: 0.45 µM

B3: Necrostatin C1 (label not stated) (peptide)
peptide: [Phg]Y[dA]KY[dF]G[dK]H[Dap]
modifications: linker (positions not given here) via trimesic acid (trimesoyl); not fully specified (bridges)
notes: As used in the TNFα-TNFR1 ELISA and the MTT assays; also called Nercostatin C1
- IC50 [6]: 3.1 µM
